Test results as given in patent US20080213817.

Assays:
[1] = system: GST-c-Jun fusion protein [GST: P08515]
E3 ubiquitin ligase Itch = E3 ubiquitin ligase Itch (UniProt Q8C863)
Chain of E3 ubiquitin ligase Itch (UniProt Q8C863) (Q8C863 2-864): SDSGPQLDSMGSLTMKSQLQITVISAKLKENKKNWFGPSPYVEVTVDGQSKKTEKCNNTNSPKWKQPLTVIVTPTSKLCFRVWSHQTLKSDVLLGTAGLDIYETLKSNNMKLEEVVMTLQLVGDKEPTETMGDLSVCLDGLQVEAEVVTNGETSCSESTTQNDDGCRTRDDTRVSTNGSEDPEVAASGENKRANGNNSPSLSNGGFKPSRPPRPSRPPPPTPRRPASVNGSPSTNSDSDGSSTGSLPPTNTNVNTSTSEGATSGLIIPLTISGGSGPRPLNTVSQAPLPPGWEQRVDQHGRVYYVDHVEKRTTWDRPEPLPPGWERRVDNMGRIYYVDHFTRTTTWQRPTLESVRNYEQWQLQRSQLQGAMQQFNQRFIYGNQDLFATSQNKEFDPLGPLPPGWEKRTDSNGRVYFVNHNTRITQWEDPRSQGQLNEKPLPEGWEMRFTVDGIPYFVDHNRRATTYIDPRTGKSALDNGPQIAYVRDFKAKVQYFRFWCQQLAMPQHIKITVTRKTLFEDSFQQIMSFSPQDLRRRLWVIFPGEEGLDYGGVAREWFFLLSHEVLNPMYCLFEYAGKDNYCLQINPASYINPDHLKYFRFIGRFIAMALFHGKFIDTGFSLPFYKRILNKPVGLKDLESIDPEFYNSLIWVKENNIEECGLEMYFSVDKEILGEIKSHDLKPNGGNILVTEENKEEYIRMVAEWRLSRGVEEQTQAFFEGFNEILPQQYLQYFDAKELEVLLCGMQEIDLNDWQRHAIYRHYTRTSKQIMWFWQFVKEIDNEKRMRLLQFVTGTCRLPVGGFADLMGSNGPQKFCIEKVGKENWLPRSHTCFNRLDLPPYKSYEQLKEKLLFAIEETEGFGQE

Chain of E3 ubiquitin ligase Itch (chain, as listed by the source): as the sequence (Q8C863 2-864) above
Chain of GST-c-Jun fusion protein [GST: P08515] (P08515 whole entry, looked up, the tested form may be a part): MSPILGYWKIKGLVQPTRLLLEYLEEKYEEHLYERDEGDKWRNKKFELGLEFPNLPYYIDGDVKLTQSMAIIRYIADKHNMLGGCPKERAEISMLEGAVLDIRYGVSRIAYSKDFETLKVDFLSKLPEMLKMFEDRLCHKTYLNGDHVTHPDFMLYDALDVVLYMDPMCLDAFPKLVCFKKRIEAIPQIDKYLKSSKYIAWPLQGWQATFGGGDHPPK

Row | Substance | polyubiquitination of c-Jun (in vitro ubiquitination assay, immunoblot with anti-c-Jun) [1] | Itch phosphorylation (in vitro kinase reaction with [gamma-32P]ATP, autoradiography) (E3 ubiquitin ligase Itch)
1 | E3 ubiquitin ligase Itch | Itch isolated from primary T cells mediated polyubiquitination of c-Jun in a manner dependent on E1 and E2 | 
2 | c-Jun N-terminal kinase 1 (JNK1), active |  | Incubation of Itch with active JNK1 also led to its efficient phosphorylation
